In PMC4726246:

B1: TASK-1: N53A (protein)
parent chain: MKRQNVRTLALIVCTFTYLLVGAAVFDALESEPELIERQRLELRQQELRARYNLSQGGYEELERVVLRLKPHKAGVQWRFAGSFYFAITVITTIGYGHAAPSTDGGKVFCMFYALLGIPLTLVMFQSLGERINTLVRYLLHRAKKGLGMRRADVSMANMVLIGFFSCISTLCIGAAAFSHYEHWTFFQAYYYCFITLTTIGFGDYVALQKDQALQTQPQYVAFSFVYILTGLTVIGAFLNLVVLRFMTMNAEDEKRDAEHRALLTRNGQAGGGGGGGSAHTTDTASSTAAAGGGGFRNVYAEVLHFQSMCSCLWYKSREKLQYSIPMIIPRDLSTSDTCVEQSHSSPGGGGRYSDTPSRRCLCSGAPRSAISSVSTGLHSLSTFRGLMKRRSSV
B2: TASK-1: S55A (protein)
parent chain: B1 parent chain

Legend:
[1] = ratio of TEVC current to surface expression; details: glycan lost; control: wild type
[2] = TEVC, co-expression in Xenopus oocytes, +40 mV; details: glycan lost; control: TASK-3 WT alone

Row | Protein | other: conductivity (current / surface expression ratio) [1] | other: current of co-expressed TASK-3 [2]
1 | B1 | no change | no change
2 | B2 | no change | –
